Data published in paper PMC3919601.

Target: 80S ribosomes from yeast cells expressing wild-type rpL10 (S. cerevisiae) (UniProt P41805)
Assay: steady-state binding of [32P]-Sdo1p; ribosomes held on cysteine-charged sulfolink resin, unbound Sdo1p in the flow-through counted; 2 pmol ribosomes with 0.25–32 pmol Sdo1p and 100 µg polyU in 50 mM Tris-(OAc)2 pH 7.5, 50 mM NH4(OAc)2, 10 mM Mg(OAc)2, 2 mM DTT, 50 µl, 30°C 20 min

Sequence of UniProt P41805 (P41805 whole entry, looked up): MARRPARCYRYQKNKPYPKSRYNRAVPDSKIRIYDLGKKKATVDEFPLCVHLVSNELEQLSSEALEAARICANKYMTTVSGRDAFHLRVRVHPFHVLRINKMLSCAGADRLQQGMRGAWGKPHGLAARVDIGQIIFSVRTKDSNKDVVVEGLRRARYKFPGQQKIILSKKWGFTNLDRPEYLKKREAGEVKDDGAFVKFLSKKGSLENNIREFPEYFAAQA

B1: Sdo1p with a C-terminal 6× histidine tag and the phosphorylatable kemptide (natural protein)
chain: MPINQPSGQIKLTNVSLVRLKKARKRFEVACYQNKVQDYRKGIEKDLDEVLQIHQVFMNVSKGLVANKEDLQKCFGTTNVDDVIEEIMHKGEIQLSEKERQLMLNKVNNEMLTIVSAKCINPVSKKRYPPTMIHKALQELKFSPVINKPAKLQALEAIKLLVSKQIIPIVRAKMKVKVAISEPSRQPELIEKISKLIASSPGESTKPELDPWTCTGLIDPVNYRDLMTLCDKKGTVQVLDMAVIDNTTHN
modifications: 32P-phosphate on the kemptide (labelled with PKA and [32P]-γ-ATP, 40–60% label incorporation)
For B1, the stoichiometry N was 1.
